Numbered stars: 1 amine (or outer) side, 2 acyl side, 3 side chain; on linkers, the order of the positions; unused ones are H or OH. Square brackets hold non-standard residues; d marks the D form. Ends that are not written are not given here. * marks the point of attachment. ξ: configuration not given here. Apc(Ae) = 4-amino-1-(2-amino-ethyl)-piperidine-4-carboxylic acid, O=C(C1(N[*:1])CCN(CCN[*:3])CC1)[*:2]; Apc(Et) = 4-amino-1-ethyl-piperidine-4-carboxylic acid, CCN1CCC(N[*:1])(C(=O)[*:2])CC1; Apc(Me) = 4-amino-1-methyl-piperidine-4-carboxylic acid, CN1CCC(N[*:1])(C(=O)[*:2])CC1; Pro(trans-4-NH2) = O=C([C@@H]1C[C@@H](N[*:3])CN1[*:1])[*:2]; Sni = (S)-nipecotic acid, O=C([C@H]1CCCN([*:1])C1)[*:2]; Eat = 2,3-dihydro-1H-indole-2-carboxylic acid; Oic = O=C(O)[C@@H]1C[C@@H]2CCCC[C@@H]2N1; NMeR = CN[C@@H](CCCNC(=N)N)C(=O)O; dDap(Me2) = CN(C)C[C@@H](N)C(=O)O; Hyp = O=C(O)[C@@H]1C[C@@H](O)CN1; Tic = O=C(O)[C@@H]1Cc2ccccc2CN1; NMeL = CN[C@@H](CC(C)C)C(=O)O; AR‑201‑68 = not defined here; ξαMeL = CC(C)CC(C)(N)C(=O)O; Octanoyl = CCCCCCCC(=O)*; Thz = O=C(O)[C@@H]1CSCN1; Aze = O=C(O)[C@@H]1CCN1; Deg = CCC(N)(CC)C(=O)O; Nbt = 4-butyl-thiazole; Sbt = 5-butyl-thiazole; Aib = CC(C)(N)C(=O)O

The labels stand for the following.
T1: natriuretic peptide receptor-B (human)
T1 chain: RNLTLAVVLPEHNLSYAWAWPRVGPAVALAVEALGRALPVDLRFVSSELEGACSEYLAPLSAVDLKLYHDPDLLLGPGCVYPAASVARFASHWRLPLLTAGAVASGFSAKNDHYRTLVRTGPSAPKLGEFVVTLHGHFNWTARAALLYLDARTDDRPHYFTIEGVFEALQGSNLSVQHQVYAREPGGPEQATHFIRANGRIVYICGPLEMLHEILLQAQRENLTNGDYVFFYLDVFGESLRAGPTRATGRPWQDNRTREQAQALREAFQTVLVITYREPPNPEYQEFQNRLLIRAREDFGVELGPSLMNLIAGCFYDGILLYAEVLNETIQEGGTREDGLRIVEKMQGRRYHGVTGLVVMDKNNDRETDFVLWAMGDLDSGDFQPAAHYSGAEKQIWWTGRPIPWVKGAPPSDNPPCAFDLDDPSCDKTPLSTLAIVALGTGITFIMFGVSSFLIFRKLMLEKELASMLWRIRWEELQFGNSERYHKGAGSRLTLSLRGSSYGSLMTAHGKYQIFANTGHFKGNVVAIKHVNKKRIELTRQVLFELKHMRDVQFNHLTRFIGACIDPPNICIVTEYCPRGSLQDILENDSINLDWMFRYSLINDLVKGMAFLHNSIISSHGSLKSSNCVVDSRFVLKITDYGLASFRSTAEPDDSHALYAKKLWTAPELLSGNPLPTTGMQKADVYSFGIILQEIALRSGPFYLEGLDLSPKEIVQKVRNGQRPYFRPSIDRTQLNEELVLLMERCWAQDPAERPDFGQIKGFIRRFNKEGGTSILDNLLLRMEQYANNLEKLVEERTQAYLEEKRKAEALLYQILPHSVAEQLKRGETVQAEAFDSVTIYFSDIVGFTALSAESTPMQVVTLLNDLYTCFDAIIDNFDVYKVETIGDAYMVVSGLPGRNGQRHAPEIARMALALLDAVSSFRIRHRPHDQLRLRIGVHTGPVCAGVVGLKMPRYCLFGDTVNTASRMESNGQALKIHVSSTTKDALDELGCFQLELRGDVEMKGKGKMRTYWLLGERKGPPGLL

B1: JAL-0651 (peptide)
peptide: XXFGLKLDRI
HELM: PEPTIDE1{[CCCCCC(=O)[*:2]].[O=C(C1CCN([*:1])CC1)[*:2]].F.G.L.K.L.D.R.I.[am]}$$$$V2.0
SMILES: CCCCCC(=O)N1CCC(C(=O)N[C@@H](Cc2ccccc2)C(=O)NCC(=O)N[C@@H](CC(C)C)C(=O)N[C@@H](CCCCN)C(=O)N[C@@H](CC(C)C)C(=O)N[C@@H](CC(=O)O)C(=O)N[C@@H](CCCNC(=N)N)C(=O)N[C@H](C(N)=O)[C@@H](C)CC)CC1
B2: JAL-0650 (peptide)
peptide: XXFGLKLDRI
HELM: PEPTIDE1{[CCCCCC(=O)[*:2]].[O=C(Cc1ccc(N[*:1])cc1)[*:2]].F.G.L.K.L.D.R.I.[am]}$$$$V2.0
SMILES: CCCCCC(=O)Nc1ccc(CC(=O)N[C@@H](Cc2ccccc2)C(=O)NCC(=O)N[C@@H](CC(C)C)C(=O)N[C@@H](CCCCN)C(=O)N[C@@H](CC(C)C)C(=O)N[C@@H](CC(=O)O)C(=O)N[C@@H](CCCNC(=N)N)C(=O)N[C@H](C(N)=O)[C@@H](C)CC)cc1
B3: JAL-0652 (peptide)
peptide: XXFGLKLDRI
HELM: PEPTIDE1{[CCCCCC(=O)[*:2]].[O=C(Cn1cccc(N[*:1])c1=O)[*:2]].F.G.L.K.L.D.R.I.[am]}$$$$V2.0
SMILES: CCCCCC(=O)Nc1cccn(CC(=O)N[C@@H](Cc2ccccc2)C(=O)NCC(=O)N[C@@H](CC(C)C)C(=O)N[C@@H](CCCCN)C(=O)N[C@@H](CC(C)C)C(=O)N[C@@H](CC(=O)O)C(=O)N[C@@H](CCCNC(=N)N)C(=O)N[C@H](C(N)=O)[C@@H](C)CC)c1=O
B4: JAL-1380 (peptide)
peptide: [AR‑201‑68]F[dL]L[Hyp][NMeL]DRI-NH2
modifications: reading uncertain; also: printed as (AR-201-68)-Phe-leu-Leu-Hyp-Nml-Asp-Arg-Ile-NH2
B5: JAL-1381 (peptide)
peptide: [AR‑201‑68]F[dR]L[Hyp][NMeL]DRI-NH2
modifications: reading uncertain; also: printed as (AR-201-68)-Phe-arg-Leu-Hyp-Nml-Asp-Arg-Ile-NH2

The experiment concerns the target T1, natriuretic peptide receptor-B. The experiment can be described thus: cell-based or functional assay.
For Octanoyl-[Sni]F[dL]L[Hyp][NMeL]VRI-NH2 [JAL-1398], the “EC50 group, cGMP in GTM-3 cells” value was at most 1 µM.

Octanoyl-[dA]F[dL]L[Hyp][Oic]DRI-NH2 [JAL-1386]: the “EC50 group, cGMP in GTM-3 cells” value was at most 5 µM. Under Octanoyl-[Sni]F[dL]L[Hyp][NMeL]VRI-NH2 [JAL-1399] stands at most 5 µM; under Octanoyl-[Sni]F[dL]L[Pro(trans-4-NH2)][NMeL]VRI-NH2 [JAL-1401], at most 1 µM. In the case of B1, the “EC50 group, cGMP in GTM-3 cells” value was at most 15 µM. Under Octanoyl-[Sni]F[dDap(Me2)]L[Hyp][NMeL]VRI-NH2 [JAL-1400] stands at most 15 µM; under Octanoyl-AFLL[Hyp][NMeL]D[NMeR]I-NH2 (also: lower-case ala, leu: meaning not given here) [JAL-1417], at most 1 µM; under Octanoyl-[dA]F[dR]L[Hyp][Aze]DRI-NH2 [JAL-1393], at most 15 µM. Next, Octanoyl-[Sni]F[dDap(Me2)]L[Pro(trans-4-NH2)][NMeL]VRI-NH2 [JAL-1405]: at most 1 µM; Octanoyl-[dA]F[dL]L[Hyp][NMeL]DR[Aib]-NH2 [JAL-1413]: at most 5 µM. On to Octanoyl-[Sni]F[dL]L[Pro(trans-4-NH2)][NMeL]VRI-NH2 [JAL-1404], for which the “EC50 group, cGMP in GTM-3 cells” value was at most 5 µM. Under Nbt-[Sni]F[dL]L[Hyp][NMeL]DRI-NH2 [JAL-1383] stands at most 5 µM. For Octanoyl-[dA]F[dR]L[Hyp][Tic]DRI-NH2 [JAL-1396], the “EC50 group, cGMP in GTM-3 cells” value was at most 5 µM.

As for B2, the “EC50 group, cGMP in GTM-3 cells” value is at most 15 µM. Next, Sbt-[Sni]F[dL]L[Hyp][NMeL]DRI-NH2 [JAL-1382]: at most 1 µM; B3: at most 15 µM. As for Octanoyl-[dA]F[Apc(Ae)]A[dE]L[Hyp][NMeL]DRI-NH2 [JAL-1408], the “EC50 group, cGMP in GTM-3 cells” value was at most 5 µM.

For Octanoyl-AFLL[Hyp][NMeL]DR[ξαMeL]-NH2 (also: lower-case ala, leu: meaning not given here) [JAL-1414], the “EC50 group, cGMP in GTM-3 cells” value is at most 1 µM. Under Octanoyl-[dA]F[dR]L[Hyp][Eat]DRI-NH2 [JAL-1394] stands at most 15 µM; under B4, at most 1 µM.

Consider B5, for which the “EC50 group, cGMP in GTM-3 cells” value was at most 5 µM. Consider Octanoyl-[Sni]F[dDap(Me2)]L[Hyp][NMeL]VRI-NH2 [JAL-1402], for which the “EC50 group, cGMP in GTM-3 cells” value was at most 5 µM.

On to Octanoyl-[dA]F[Apc(Et)]E[dT]L[Hyp][NMeL]DRI-NH2 [JAL-1407], for which the “EC50 group, cGMP in GTM-3 cells” value was at most 1 µM.

With Octanoyl-[dA]F[Apc(Me)]M[dE]L[Hyp][NMeL]DRI-NH2 [JAL-1406], the “EC50 group, cGMP in GTM-3 cells” value was at most 1 µM. With Octanoyl-[dA]F[dR]L[Hyp][Thz]DRI-NH2 [JAL-1395], the “EC50 group, cGMP in GTM-3 cells” value was at most 15 µM.

On to Octanoyl-[Sni]F[dDap(Me2)]L[Pro(trans-4-NH2)][NMeL]VRI-NH2 [JAL-1403], for which the “EC50 group, cGMP in GTM-3 cells” value is at most 1 µM. Under Octanoyl-[dA]F[dR]L[Hyp]PDRI-NH2 [JAL-1387] stands at most 15 µM; under Octanoyl-AFLL[Hyp][NMeL]DR[Deg]-NH2 (also: lower-case ala, leu: meaning not given here) [JAL-1416], at most 1 µM.

Source of the values: patent US9187525B2, “Methods of treating ophthalmic diseases using NPR-B agonists” (Shire Orphan Therapies GmbH, dated 2015).
